The results in this text go back to patent US20060002969A1.

The assay deals with human matrix metalloproteinase-9 (MMP-9) (human) (UniProt P14780). As to the kind of experiment: cell-based or functional assay.
Sequence of UniProt P14780 (P14780 107-707 Q279R/R574P limits assumed): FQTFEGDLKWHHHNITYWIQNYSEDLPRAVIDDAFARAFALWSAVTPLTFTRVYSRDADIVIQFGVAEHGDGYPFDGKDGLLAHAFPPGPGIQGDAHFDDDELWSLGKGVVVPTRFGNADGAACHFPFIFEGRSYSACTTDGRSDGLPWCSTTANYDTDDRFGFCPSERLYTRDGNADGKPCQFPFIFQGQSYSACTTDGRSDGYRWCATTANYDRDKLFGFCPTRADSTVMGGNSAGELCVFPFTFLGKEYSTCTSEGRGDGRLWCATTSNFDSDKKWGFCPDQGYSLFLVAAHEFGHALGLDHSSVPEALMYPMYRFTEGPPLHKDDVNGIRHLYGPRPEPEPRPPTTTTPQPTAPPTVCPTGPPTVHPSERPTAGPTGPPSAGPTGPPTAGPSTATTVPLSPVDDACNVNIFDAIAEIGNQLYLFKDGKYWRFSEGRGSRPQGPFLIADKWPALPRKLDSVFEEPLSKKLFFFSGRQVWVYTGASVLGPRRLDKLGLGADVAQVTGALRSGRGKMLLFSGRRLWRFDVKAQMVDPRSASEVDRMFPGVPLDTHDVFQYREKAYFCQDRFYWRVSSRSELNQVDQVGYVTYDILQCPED

As for “anti-human MMP-9 monoclonal antibody (raised in mouse) obtained from Chemicon International (catalog number MAB13415)”, the FBGC formation from human monocytes induced with IL-4 and GM-CSF (FBGC/high power field) (FBGC/high power field) worked out at 3.7; the fraction of cells fused was found to be 9.8%.
